US20200347130A1 (JIANGSU HENGRUI MEDICINE, published 2020)
Numbering of substitutions follows the chain as printed.

T1: CD96 extracellular region with His tag (CD96-His) (human, UniProt P40200 22-519)
T1 construct: also called CD96-ECD-His; Bio-CD96-His (biotin-labelled form)
T1 sequence: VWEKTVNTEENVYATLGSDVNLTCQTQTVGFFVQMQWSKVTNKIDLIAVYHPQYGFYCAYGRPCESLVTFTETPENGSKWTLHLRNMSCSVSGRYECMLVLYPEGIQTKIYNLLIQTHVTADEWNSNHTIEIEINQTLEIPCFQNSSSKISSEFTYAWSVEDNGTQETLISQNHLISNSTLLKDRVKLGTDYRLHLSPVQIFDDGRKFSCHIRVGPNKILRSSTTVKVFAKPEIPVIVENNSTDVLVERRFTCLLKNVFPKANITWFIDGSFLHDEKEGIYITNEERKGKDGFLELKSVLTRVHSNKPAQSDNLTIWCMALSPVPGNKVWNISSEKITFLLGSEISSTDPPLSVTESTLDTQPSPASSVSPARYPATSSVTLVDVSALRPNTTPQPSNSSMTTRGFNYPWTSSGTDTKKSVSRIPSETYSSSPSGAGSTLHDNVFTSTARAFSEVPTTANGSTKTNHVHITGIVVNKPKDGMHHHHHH

T2: Biotinylated CD96 antigen (human, UniProt P40200-2 22-503, limits assumed, biotinylated)
T2 sequence (looked up): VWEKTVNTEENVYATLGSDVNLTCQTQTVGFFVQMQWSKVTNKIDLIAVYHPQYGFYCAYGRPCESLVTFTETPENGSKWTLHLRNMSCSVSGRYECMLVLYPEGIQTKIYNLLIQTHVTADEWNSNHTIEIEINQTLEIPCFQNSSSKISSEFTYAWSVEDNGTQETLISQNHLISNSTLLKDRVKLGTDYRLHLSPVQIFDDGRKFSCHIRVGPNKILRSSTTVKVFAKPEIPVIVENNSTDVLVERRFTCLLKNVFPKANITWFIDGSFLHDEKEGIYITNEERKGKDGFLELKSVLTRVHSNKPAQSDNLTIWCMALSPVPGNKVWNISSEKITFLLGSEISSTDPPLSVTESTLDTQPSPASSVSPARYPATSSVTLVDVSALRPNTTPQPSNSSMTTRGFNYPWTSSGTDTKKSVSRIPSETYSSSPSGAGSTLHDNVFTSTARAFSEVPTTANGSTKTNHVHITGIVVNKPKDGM

B1: ch1719 (antibody, human IgG4 S228P, kappa, V domains shown)
VH: QVQLKESGPGLVAPSQSLSITCTVSGFSLISYGVSWVRQPPGKGLEWLGVIWGDGNTNYHSVLISRLSIRKDDSKSQVFLKLNSLQTDDTATYYCAKNNYYGSRYGYPMDYWGQGTSVTVSS
VL: DIVMTQSHKFMSTSVGDRVSITCKATQDVGTAVAWYQQKPGHSPKLLIYWASTRHTGVPERFTGSGSGTDFTLTIDNVQSEDLADYFCQQYGSSVLTFGAGTKVELRR
notes: also called chimeric antibody corresponding to m1719
B2: ch1721 (antibody, human IgG4 S228P, kappa, V domains shown)
VH: B1 VH with S35N, N56S, V62A, R70S, K81N, N99Y, Y100F, P108A, Y111S, T116I
VL: DIQMTQSPASLSAAVGETVTITCRASENIYSSLAWYQQKQGKSPQLLVYNAKTLIETVASRFSGSGSGTQYSLKINSLQPEDFGSFYCQHHYGTPYTFGGGTKLEIKR
notes: also called chimeric antibody corresponding to m1721
B3: ch1722 (antibody, human IgG4 S228P, kappa, V domains shown)
VH: QVQLQQPGAELVKPGTSVKLSCKASGNTFIDYWMHWVKQRPGQGLEWIGMLHPNSGTTSFNEKFKIKTTLTIDKSSSTAYMQLSSLTSEDSAIYYCASDYSGPFAYWGQGTLVTVSA
VL: QIVLTQSPGIMSAFPGEKVTMTCSASSSVNYIHWYQQKSGTSPKRWIFDTSKLASGVPARFSGSGSGTSYSLTISSMEAEDAATYYCQQWRSNPLTFGAGTKLELKR
notes: also called chi722; chimeric antibody corresponding to m1722
B4: ch1720 (antibody, human IgG4 S228P, kappa, V domains shown)
VH: EFQLQQSGPELVKPGASVKISCKASAYSLTDYNMNWVKQSNGKSLEWIGVINPSYGISSYNQKFKGKATLTVDQSSSTAYMHLNSLTSEDSAVYYCARQLRLPGYFDVWGTGTTVTVSS
VL: DIKMTQSPSSKNASLGERVTITCKASQDINSYLNWFQQKPGKSPKTLIYRASRLVDGVPSRFSGSGSGQDYSLTISSLEYEDMGIYYCLKYDEFPYTFGGGTKLEIKR
notes: also called chimeric antibody corresponding to m1720
B5: ch1718 (antibody, human IgG4 S228P, kappa, V domains shown)
VH: B4 VH with L29I, S58T, S59D, K63N, G66D, H82Q, R98I, T116I
VL: B4 VL with K11M, N12Y, S31N, S52N, L104V
notes: also called chimeric antibody corresponding to m1718
B6: h1718-012 (antibody, V domains shown)
VH: EVQLVQSGAEVKKPGASVKVSCKASGYTITDYNMNWVRQAPGQRLEWIGVINPSYGITDYNQNFKDRVTITVDTSASTAYMELSSLRSEDTAVYYCAIQLRLPGYFDVWGQGTTVTVSS
VL: DIQMTQSPSSLSASVGDRVTITCKASQDINQYLNWFQQKPGKAPKTLIYRANRLVDGVPSRFSGSGSGQDYTLTISSLQPEDFATYYCLKYDEFPYTFGGGTKVEIK
notes: Only variable regions are tied to this name
B7: h1721-003 (antibody, V domains shown)
VH: EVTLKESGPVLVKPTETLTLTCTVSGFSLSSYGVNWIRQPPGKALEWLGVIWGDGSTNYHSALISRLTISKDTSKSQVVLTLTNMDPVDTATYYCAKNYFYGSRYGYAMDSWGQGTTVTVSS
VL: DIQMTQSPSSLSASVGDRVTITCRASENIYSSLAWYQQKPGKAPKLLIYNAKTLIEGVPSRFSGSGSGTDFTLTISSLQPEDFATYYCQHHYGTPYTFGGGTKVEIK
notes: Only variable regions are tied to this name; also called M721-003
B8: h1719-014 (antibody, V domains shown)
VH: B7 VH with N35S, I37V, A44G, S56N, A62V, F100Y, A108P, M109L, S111Y
VL: DIQMTQSPSSVSASVGDRVTITCKATQDVGTAVAWYQQKPGKSPKLLIYWASTRHTGVPERFSGSGSGTDFTLTISSLQPEDFATYFCQQYGSSVLTFGGGTKVEIK
notes: Only variable regions are tied to this name; also called M719-014
B9: h1722-010 (antibody, V domains shown)
VH: EVQLVQSGAEVKKPGSSVKVSCKASGGTFSDYWMHWVRQAPGQGLEWIGMLHPNSGTTSFNEKFKIRVTITADKSTSTAYMELSSLRSEDTAVYYCASDYSGPFAYWGQGTLVTVSS
VL: DIQLTQSPSSLSASVGDRVTITCSASSSVNYIHWYQQKPGKAPKRWIFDTSKLASGVPSRFSGSGSGTDYTLTISSLQPEDFATYYCQQWRSNPLTFGQGTKLEIK
notes: Only variable regions are tied to this name; also called M722-010

These binders were tested against T1, CD96 extracellular region with His tag … (assay: blocking cell ELISA: antibody premixed with CD96 antigen (0.5 ug/mL), binding to fixed CD155-CHO cells).
Protocol: CD155-CHO cells (constructed by Shanghai Hengrui) were seeded in 96-well culture plates at a density of 9×10⁴/100 μL/well and cultured overnight. After aspirating the supernatant, the plate was washed once with PBS, 100 μl/well of immunostaining fixation solution (Biyuntian, Cat No. P0098) was added and fixed for one hour at room temperature, and the plate was washed three times with PBS. After discarding the liquid, 250 μl/well of 5% skim milk (BD, Cat No. 232100) blocking solution diluted with PBS was added, and the plate was blocked in an incubator at 37° C. for 2.5 hours. After blocking, the blocking solution was discarded, subsequently, the plate was washed 4 times with PBST buffer (pH 7.4 PBS containing 0.05% tween-20). 50 μl/well of antigen-antibody pre-incubation solution (gradient concentrations of the hybridoma antibody to be tested and CD96-Fc at a final concentration of 0.5 μg/mL were premixed at 37° C. for 30 minutes, or gradient concentrations of humanized antibody samples and Bio-CD96-His at a final concentration of 0.5 μg/mL were premixed at 37° C. for 30 minutes) (Biotin-labeled kit, Dongren Chemical, Cat No. LK03) was added, and the plate was incubated in an incubator at 37° C. for 2 hours. After incubation, the reaction solution in the microtiter plate was discarded, the plate was washed 4 times with PBST, and 50 μl/well of HRP-labeled goat anti-human secondary antibody (Jackson Immuno Research, Cat No. 109-035-003) diluted with sample dilution or HRP-labeled streptavidin diluted with sample dilution (Sigma, Cat No. 52438) was added, followed by incubating at 37° C. for 1 hour. After washing the plate 4 times with PBST, 50 μl/well of TMB chromogenic substrate (KPL, Cat No. 52-00-03) was added, the plate was incubated at room temperature for 10-20 minutes, followed by adding 50 μl/well of 1M H₂SO₄ to stop the reaction. The absorption value was read at 450 nm with a NOVOStar microplate reader, and the EC50 value of the effect of CD96 antibody on blocking the binding between the antigens and CD155-CHO cells was calculated (see FIG. 2 and Table 16).

| IC50 [nM] | Binder |
| --- | --- |
| 0.137 | B1 |
| 0.214 | B2 |
| 0.159 | B3 |
| 0.149 | B4 |
| 0.096 | B5 |

Each binder was assayed against T2, Biotinylated CD96 antigen (assay: competition ELISA, antibody B premixed with biotinylated CD96; competitor (coated antibody A): h1722-010).
Protocol: Competitive assays of different antibodies binding to CD96 protein were used to classify binding epitopes of the antibodies. The specific experimental methods are as follows:
Antibody A was diluted to a concentration of 2 μg/ml with PBS buffer (Shanghai Yuanpei Biotechnology Co., Ltd. Cat No. B320), pH 7.4, added to a 96-well microtiter plate (Corning, Cat No. CLS3590-100EA) at a volume of 50 μl/well, and coated at 4° C. overnight. After discarding the liquid, 250 μl/well of 5% skim milk (BD skim milk, Cat No. 232100) blocking solution diluted with PBS was added, and the plate was incubated at 37° C. for 3 hours. After blocking, the blocking solution was discarded, and the plate was washed 5 times with PBST buffer (pH 7.4 PBS containing 0.05% tween-20) and stored for later use. Antibody B was diluted to 40 μg/ml and 8 μg/ml with 1% BSA, and Biotinylated CD96 antigen was simultaneously diluted to 4 μg/mL. Subsequently, antibody B and antigen were mixed in a 1:1 volume ratio, pre-incubated at 37° C. for 45 minutes, added into the enzyme plate coated with antibody A, thus incubating the plate in an incubator at 37° C. for 1.5 hours. After incubation, the plate was washed for 5 times with PBST, and 50 μl/well of HRP-labeled streptavidin (Sigma, Cat No. 52438) diluted with sample dilution was added, followed by incubating the plate at 37° C. for 1 hour. After washing the plate 5 times with PBST, 50 μl/well of TMB chromogenic substrate (KPL, Cat No. 52-00-03) was added for color development, followed by adding 50 μl/well of 1M H₂SO₄ to stop the reaction. The absorption value was read at 450 nm with a NOVOStar microplate reader, and the OD value was used to determine whether A and B CD96 antibodies compete with each other. Antibodies that compete with each other fall into the same class of antibodies, otherwise belong to different classes of antibodies (see FIG. 3 and Table 18).

| competition (percent) [%] | Binder |
| --- | --- |
| -11.1 | B6 |
| -0.3 | B7 |
| 28.6 | B8 |
| 100 | B9 |
| -2.4 | B4 |
